Patent publication US20220089692A1

Target: SARS-CoV-2 Spike RBD-His Recombinant Protein (SARS-CoV-2) (UniProt P0DTC2)
Test: monoclonal phage ELISA, SPIKE RBD coated 200 ng/well; helper phage control

Work on M13KO7 auxiliary phage yielded an ELISA signal (OD450) of 0.0434.
